Key:
full-length γζ-COP dimer = biological target: T1, full-length γζ-COP dimer (B. taurus, UniProt P53620 1-874; P35604 1-177); assay: pull-down
T1 sequence (looked up) 1: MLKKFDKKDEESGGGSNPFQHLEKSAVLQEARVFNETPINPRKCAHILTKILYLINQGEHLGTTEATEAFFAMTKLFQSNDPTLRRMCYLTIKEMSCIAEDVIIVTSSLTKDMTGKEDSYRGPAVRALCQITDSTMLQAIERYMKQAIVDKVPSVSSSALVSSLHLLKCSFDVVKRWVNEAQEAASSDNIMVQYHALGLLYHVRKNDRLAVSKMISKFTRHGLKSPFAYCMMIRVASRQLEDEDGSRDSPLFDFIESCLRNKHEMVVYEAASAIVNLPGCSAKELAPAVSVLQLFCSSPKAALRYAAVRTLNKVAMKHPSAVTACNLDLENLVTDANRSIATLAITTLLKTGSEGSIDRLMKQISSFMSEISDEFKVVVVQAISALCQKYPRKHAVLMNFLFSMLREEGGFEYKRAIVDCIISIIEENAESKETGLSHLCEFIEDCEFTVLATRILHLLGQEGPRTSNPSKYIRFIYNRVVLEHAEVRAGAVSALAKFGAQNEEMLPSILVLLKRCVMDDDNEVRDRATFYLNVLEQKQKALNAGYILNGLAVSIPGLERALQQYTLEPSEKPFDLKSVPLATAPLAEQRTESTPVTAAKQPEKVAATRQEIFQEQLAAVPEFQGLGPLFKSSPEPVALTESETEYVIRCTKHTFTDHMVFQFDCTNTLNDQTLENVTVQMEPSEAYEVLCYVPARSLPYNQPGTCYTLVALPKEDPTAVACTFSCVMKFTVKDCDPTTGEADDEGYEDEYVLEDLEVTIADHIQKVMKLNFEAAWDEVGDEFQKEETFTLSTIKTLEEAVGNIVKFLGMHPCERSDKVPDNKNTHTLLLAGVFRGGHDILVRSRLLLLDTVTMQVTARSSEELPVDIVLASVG
T1 sequence (looked up) 2: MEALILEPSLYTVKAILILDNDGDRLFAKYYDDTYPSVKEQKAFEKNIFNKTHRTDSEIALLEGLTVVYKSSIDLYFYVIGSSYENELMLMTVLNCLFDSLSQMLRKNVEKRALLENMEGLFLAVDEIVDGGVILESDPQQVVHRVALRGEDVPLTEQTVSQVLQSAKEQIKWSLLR

[1] = biological target: T2, βδ-COP dimer with full-length β-COP L124E (R. norvegicus | B. taurus, UniProt P23514 1-953; P53619 1-511, L124E); assay: pull-down
T2 sequence (looked up) 1: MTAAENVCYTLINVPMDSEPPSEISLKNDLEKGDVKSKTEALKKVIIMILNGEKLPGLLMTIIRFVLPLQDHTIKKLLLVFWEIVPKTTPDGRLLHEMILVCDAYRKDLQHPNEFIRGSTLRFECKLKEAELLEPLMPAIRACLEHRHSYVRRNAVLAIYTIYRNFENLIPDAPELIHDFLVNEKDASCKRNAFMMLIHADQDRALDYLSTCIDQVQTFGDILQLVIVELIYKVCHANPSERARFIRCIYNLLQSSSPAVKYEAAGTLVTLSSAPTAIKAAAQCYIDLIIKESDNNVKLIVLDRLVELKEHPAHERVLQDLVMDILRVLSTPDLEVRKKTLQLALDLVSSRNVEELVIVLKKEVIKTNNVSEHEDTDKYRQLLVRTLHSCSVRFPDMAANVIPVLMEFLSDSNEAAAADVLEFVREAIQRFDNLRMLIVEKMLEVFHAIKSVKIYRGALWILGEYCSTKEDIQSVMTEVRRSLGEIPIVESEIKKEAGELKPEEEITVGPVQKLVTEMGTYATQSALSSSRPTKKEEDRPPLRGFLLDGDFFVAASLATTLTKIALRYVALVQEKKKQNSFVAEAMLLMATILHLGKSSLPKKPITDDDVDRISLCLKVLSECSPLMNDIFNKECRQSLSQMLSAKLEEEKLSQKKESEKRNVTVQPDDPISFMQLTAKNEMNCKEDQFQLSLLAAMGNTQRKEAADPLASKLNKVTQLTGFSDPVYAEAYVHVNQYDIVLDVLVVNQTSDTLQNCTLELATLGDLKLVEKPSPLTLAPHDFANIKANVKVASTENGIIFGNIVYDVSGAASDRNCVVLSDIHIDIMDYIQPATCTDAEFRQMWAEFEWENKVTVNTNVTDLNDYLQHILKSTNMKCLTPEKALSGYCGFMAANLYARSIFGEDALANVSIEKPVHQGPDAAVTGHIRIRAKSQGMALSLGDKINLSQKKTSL
T2 sequence (looked up) 2: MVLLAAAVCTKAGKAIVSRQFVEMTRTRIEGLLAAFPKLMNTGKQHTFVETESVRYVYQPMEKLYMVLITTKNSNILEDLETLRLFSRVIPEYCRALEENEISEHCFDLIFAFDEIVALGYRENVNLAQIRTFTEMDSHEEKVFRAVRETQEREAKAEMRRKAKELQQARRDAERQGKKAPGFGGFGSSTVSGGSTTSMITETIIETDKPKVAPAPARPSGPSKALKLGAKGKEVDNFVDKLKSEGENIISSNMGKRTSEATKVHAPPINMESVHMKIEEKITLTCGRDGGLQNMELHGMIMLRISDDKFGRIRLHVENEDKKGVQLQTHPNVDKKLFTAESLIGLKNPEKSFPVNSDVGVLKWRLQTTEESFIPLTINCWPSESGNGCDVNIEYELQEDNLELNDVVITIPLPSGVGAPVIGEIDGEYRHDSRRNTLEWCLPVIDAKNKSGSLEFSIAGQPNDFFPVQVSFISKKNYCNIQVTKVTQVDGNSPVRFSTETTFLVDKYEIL

binding result (full-length γζ-COP dimer): binds | binding result [1]: binds
B1: S. cerevisiae Arf1 (residues 18–181) with a C-terminal GST tag (domain or fragment, UniProt P11076 18-181, looked up)
chain: MRILMVGLDGAGKTTVLYKLKLGEVITTIPTIGFNVETVQYKNISFTVWDVGGQDRIRSLWRHYYRNTEGVIFVVDSNDRSRIGEAREVMQRMLNEDELRNAAWLVFANKQDLPEAMSAAEITEKLGLHSIRNRPWFIQATCATSGEGLYEGLEWLSNSLKNST
